US12448434B2, “Antibodies specifically recognizing Pseudomonas PcrV and uses thereof” (priority 2019, dated 2025)

Key:
[1] = tested on: P. aeruginosa (PA103 strain); assay: Prophylactic mouse acute pneumonia model, organ burden; format: in vivo, BALB/c mice; conditions: 10 mg/kg i.p. 24 hr before infection, 0.5*LD90
Method: In a prophylactic model, 7-8 week old BALB/c mice (Vital River Laboratory) were administered with antibodies or PBS intraperitoneally (i.p.) 24 hr before infection, at 10 mg/kg mouse weight. To induce acute pneumonia, the BALB/c mice were intranasally inoculated with P. aeruginosa (PA103 strain) suspended in a 40 μl inoculum at half the lethal dose (0.5*LD90; 3×10^5 CFU). 24 hours post-infection, mice were euthanized, where the lungs, spleens and kidneys were extracted, homogenized and diluted before plating on agar to measure the viable bacteria units (in CFU), which represented the P. aeruginosa burden in the respective organ sample.

[2] = tested on: BV particles; assay: Cross-reactivity to BV particles by ELISA; format: binding; conditions: FIG. 3
Method: Cross-reactivity to BV particles: Using ELISA, optimized antibodies 7C1, 7B1, 8C1, 6D10, and reference antibodies V2L2-MD and Mab166 were tested for cross-reactivity to BV particles according to the method described previously (See Hötzel I, et al, 2012, mAbs 4:6, 753-760).

[3] = rat, in vivo, iv
Method: Pharmacokinetic profile in rat: 40 healthy adult rats (about 0.2 kg by weight) were equally into two groups, where each group registered similar average weight. One group was injected intravenously with 30 mg/kg of V2L2-MD, 7C1, 7B1, 8C1 or 6D10 and the other group was injected intravenously with 3 mg/kg of V2L2-MD, 7C1, 7B1, 8C1 or 6D10. Blood was collected at […], and subsequently at 0 hour, 0.5 hour, 2 hour, 8 hour, 1 day, 3 days, 7 days, 11 days, 17 days, 23 days, 31 days, 41 days and 52 days after injection. After centrifugation, the plasma was used for analyzing antibody concentration using ELISA. For the ELISA experiment, synthetic PcrV was used to coat the wells of a 96-well plate. On the following day, after washing with PBST, blocking with 200 μL PBS-milk for an hour, and another wash with PBST, the plasma was added and incubated for an hour at 37° C. The plate was washed with 0.1% TBST for 6 times before 100 μL of Goat-anti-human Fc antibody-AP (1:3000 in PBS) was added to each well and incubated for an hour. After washing with 0.1% TBST for 6 times, 50 μL of pNPP was added to each well and color was developed for 10-20 minutes at 37° C. The signals were read by a microplate reader at 410 nm.

[4] = tested on: P. aeruginosa (PA103 strain); assay: Therapeutic mouse acute pneumonia model, survival; format: in vivo, BALB/c mice; conditions: i.v. 1 h post-infection, 1 mg/kg or 10 mg/kg; 1*LD90; 6 days
Method: In a therapeutic model, to induce acute pneumonia, 7-8 week old BALB/c mice (Vital River Laboratory) were intranasally inoculated with P. aeruginosa (PA103 strain) suspended in a 40 μl inoculum at a lethal dose (1*LD90=8×10^5 CFU). Antibodies or PBS were administered intravenously (i.v.) at 1 h post-infection, at a dose of 1 mg/kg or 10 mg/kg mouse weight. Mouse survival was recorded for up to 6 days post-infection.

[5] = tested on: PcrV mutants (with mutations at position 225); assay: Binding to PcrV mutants with mutations at position 225; design: species or system Pseudomonas aeruginosa; conditions: data not shown
Method: To further illustrate the optimized antibodies could broadly neutralize P. aeruginosa strains, the abilities of these antibodies to bind various forms of PcrV mutants were tested. Briefly, 100 PcrV sequences were randomly selected from Genebank database. In contrast to the wild type sequence as shown in SEQ ID No: 71, 13% of the selected sequences contained R, G, or K at position 225 (as compared of S in the wild type sequence SEQ No: 71), which was the main mutation around the epitope of 7B1.
These findings further illustrate that the optimized anti-PcrV antibodies could neutralize a broad spectrum of P. aeruginosa strains, which might express various forms of PcrV mutants.

[6] = tested on: PcrV-negative A549 cells; assay: Cross-reactivity to PcrV-negative A549 cells by FACS; format: cell-based, human; conditions: FIGS. 4A-4E, compared with no antibody and V2L2-MD
Method: Cross-reactivity to A549 cells: Using FACS, parental antibody 13-42, optimized antibodies 7C1, 7B1, 8C1, 6D10 as well as V2L2-MD were tested for cross-reactivity to PcrV-negative A549 cells.

[7] = tested on: PcrV; assay: BIACORE binding to PcrV; design: species or system Pseudomonas aeruginosa; conditions: data not shown
Method: The association constant (ka), dissociation constant (kd) and the equilibrium dissociation constant (kD) for binding of optimized anti-PcrV mAb clones 7B1, 7C1, 8C1, 6D10 and reference antibody V2L2-MD to PcrV were tested by BIACORE (GE company).

[8] = tested on: Strain 57/66(O6) P. aeruginosa; assay: RBC lysis inhibition assay, strain 57/66(O6); format: cell-based, Pseudomonas aeruginosa; conditions: Table 7
Method: Monoclonal scFv antibodies were selected and assessed for biological activity by RBC lysis assay. Briefly, red blood cells (RBCs) were prepared from fresh whole human or rabbit blood by centrifugation, supplemented with EDTA and rinsed with multiple phosphate-buffered saline (PBS) washes. Washed RBCs (2.5% [vol/vol] final) in Dulbecco's modified Eagle's medium (DMEM) plus 10% fetal bovine serum (FBS) (Gibco) and purified anti-PcrV antibodies diluted in PBS were combined into wells of a round-bottom 96-well plate. Strain 57/66(O6) P. aeruginosa was grown to mid-log phase in 2× YT medium (Oxford), harvested by centrifugation, and resuspended in DMEM-fetal bovine serum (FBS) at an optical density at 600 nm (OD600) of 0.15. Ten microliters of bacterial suspension was added to the RBC-antibody mixture, mixed by agitation, and incubated for 3 hours at 37° C. and 5% CO2. The plates were briefly centrifuged (1000 rpm, 1 min) to pellet the intact RBCs, the supernatants transferred to a flat-bottom 96-well plate, and the OD405 was measured to detect any lysis, from which the relative amount of lysis inhibition was calculated and plotted. IC50 values for the antibodies were also determined.
The ability of optimized anti-PcrV mAb clones 7B1, 7C1, 8C1, 6D10, 6A10, 5B3, 3B12, 4A10, 2B1, 7B2, 3H10, 3G3, 9B12, 3A9, 2D3, 7B1-1F5, to inhibit red blood cell lysis was compared to the parental 13-42 mAb and the reference antibody V2L2-MD. RBC lysis inhibition assay was performed as described in Example 1.
The optimized anti-PcrV mAb clones 7C1, 8C1, and 7B1 were further analyzed for their abilities to inhibit red blood cell lysis by various strains of P. aeruginosa, namely strains O1-52/66, O16-177/81, and O6-57/66, as compared to the parental 13-42 mAb and the reference antibody V2L2-MD. RBC lysis inhibition assay was performed as described in Example 1.

B1: 6D10: optimized anti-PcrV mAb clone; VH SEQ ID NO: 61, VL SEQ ID NO: 65 (antibody, V domains shown)
VH: EVQLLESGGGLVQPGGSLRLSCTASGFTFSDYPMSWVRQAPGKGLDWVSGISESGGSTNYADSVKGRFSTSRDNSKSTLYLDMNSLRAEDTAIYYCAKGRFSTDSSHFYRAVYGMDVWGQGTAVTVSS
VL: DIQLTQSPSSLSASVGDRVTITCRASQGISSYLAWYQQKPGKAPKLLIYAASTLQSGVPSRFSGSGSGTDFTLTISSLQPEDFATYYCQQLSSYPLSFGGGTKVEIK
reduction of organ burden in the lung, spleen and kidney relative to HIV-10E8 ([1]; FIG. 8B): higher efficacy in reducing organ burden | reduction of organ burden in the lung, spleen and kidney relative to V2L2-MD ([1]; FIG. 8B): comparable efficacy in reducing organ burden | non-specific binding to BV particles [2]: low levels of non-specific binding | half-lives relative to reference antibody V2L2-MD [3]: comparable to or longer than that of reference antibody V2L2-MD | survival improvement relative to V2L2-MD [4]: survival improvement comparable to that of V2L2-MD | binding to PcrV mutants with R, G or K at position 225 [5]: strongly bind these mutants | binding to PcrV-negative A549 cells [6]: similarly low levels of A549 binding | association and dissociation kinetics in PcrV binding (ka and kd values) [7]: comparable association and dissociation kinetics

B2: 9B12: optimized anti-PcrV mAb clone; VH SEQ ID NO: 64, VL SEQ ID NO: 67 (antibody, V domains shown)
VH: EVQLLESGGGLVQPGGSLRLSCTASGFTFSDNPMSWVRQAPGKGLDWVSVISESGGSTNDADSVKGRFSTSRDNSKSTLYLDMNSLRAEDTAIYYCAKGRFSTNSDHFYRAVYGMDVWGQGTAVTVSS
VL: DIQLTQSPSSLSASVGDRVTITCRASQGISSYLAWYQQKPGKAPKLLIYAASTLQSGVPSRFSGSGSGTDFTLTISSLQPEDFATYYCQQLSSYPLTFGGGTKVEIK
RBC lysis assay IC50 [8]: 0.07 µg/mL

B3: 2D3: optimized anti-PcrV mAb clone; VH SEQ ID NO: 53, VL SEQ ID NO: 65 (antibody, V domains shown)
VH: EVQLLESGGGLVQPGGSLRLSCTASGFTFSDNHMSWVRQAPGKGLDWVSGISESGGSTYYADSVKGRFSTSRDNSKSTLYLDMNSLRAEDTAIYYCAKGRFSYDTRHFFRAVYGMDVWGQGTAVTVSS
VL: DIQLTQSPSSLSASVGDRVTITCRASQGISSYLAWYQQKPGKAPKLLIYAASTLQSGVPSRFSGSGSGTDFTLTISSLQPEDFATYYCQQLSSYPLSFGGGTKVEIK
RBC lysis assay IC50 [8]: 0.05 µg/mL

B4: 13-42: lead parental full-length human IgG1 anti-PcrV antibody; VH SEQ ID NO: 48, VL SEQ ID NO: 65 (antibody, V domains shown)
VH: EVQLLESGGGLVQPGGSLRLSCTASGFTFSDYPMSWVRQAPGKGLDWVSGISESGGSTNDADSVKGRFSTSRDNSKSTLYLDMNSLRAEDTAIYYCAKGRFCTNSSCFFRAVYGMDVWGQGTAVTVSS
VL: DIQLTQSPSSLSASVGDRVTITCRASQGISSYLAWYQQKPGKAPKLLIYAASTLQSGVPSRFSGSGSGTDFTLTISSLQPEDFATYYCQQLSSYPLSFGGGTKVEIK
reduction of organ burden in the lung relative to V2L2-MD ([1]; 24 hours post-infection, FIG. 8A): better efficacy in reducing organ burden in the lung | binding to PcrV-negative A549 cells [6]: similarly low levels of A549 binding

B5: 7B1-1F5: optimized anti-PcrV mAb clone; VH SEQ ID NO: 62, VL SEQ ID NO: 70 (antibody, V domains shown)
VH: EVQLLESGGGLVQPGGSLRLSCTASGFTFSDNYMSWVRQAPGKGLDWVSVISESGGSTNYADSVKGRFSTSRDNSKSTLYLDMNSLRAEDTAIYYCAKGRFSTLSSHFFRAVYGMDVWGQGTAVTVSS
VL: DIQLTQSPSSFSASTGDRVTITCRASQGISSYLAWYQQKPGKAPKVLIYAASTLQSGVPSRFSGSGSGTEFTLTISSLQPEDFATYYCQQLKSYPLTFGGGTKLEIK
RBC lysis assay IC50 [8]: 0.19 µg/mL
